Experimental data taken from patent publication US20250326848A1.
Values belong to the substance of their own block, whether it stands above or below them.

Assays:
[1] = biological target: human CD47 on primary human platelets (human) (UniProt Q08722); assay: FACS, binding to primary human platelets, donor1
[2] = biological target: human CD47 on primary human platelets (human) (UniProt Q08722); assay: FACS, binding to primary human platelets, donor 2
[3] = biological target: human CD47 on primary human red blood cells (human) (UniProt Q08722); assay: FACS, whole cell binding to primary human red blood cells, Donor1
[4] = biological target: human CD47 on primary human red blood cells (human) (UniProt Q08722); assay: FACS, whole cell binding to primary human red blood cells, Donor2
[5] = biological target: human CD47 on Jurkat cells (human) (UniProt Q08722); assay: FACS, whole cell binding to Jurkat cells; middle panel 'Anti-CD47 whole cell binding to Jurkat', nM is from the axis 'Conc(nM)'
[6] = biological target: human CD47 on Jurkat cells (human) (UniProt Q08722); assay: FACS, whole cell binding to Jurkat cells; bottom panel 'Anti-CD47 Binding to CD47+ cells'; fit value printed for the control curve; nM is from the axis
[7] = biological target: human CD47 on Jurkat cells (human) (UniProt Q08722); assay: FACS, whole cell binding to Jurkat cells; top panel 'HLX305 Binding to CD47+ Jurkat Cells'; fit value given for a flat control curve; nM is from the axis
[8] = biological target: human CD47 on Jurkat cells (human) (UniProt Q08722); assay: FACS, whole cell binding to Jurkat cells; middle panel 'Anti-CD47 whole cell binding to Jurkat'; fit value given for a flat control curve; nM is from the axis
[9] = biological target: human CD47 on Jurkat cells (human) (UniProt Q08722); assay: FACS, whole cell binding to Jurkat cells; bottom panel 'Anti-CD47 Binding to CD47+ cells', nM is from the axis 'Conc. (nM)'
[10] = biological target: human PDL1 expressed on CHO cells (human) (UniProt Q9NZQ7)
human PDL1 expressed on CHO cells (human), sequence (Q9NZQ7 19-290 limits assumed): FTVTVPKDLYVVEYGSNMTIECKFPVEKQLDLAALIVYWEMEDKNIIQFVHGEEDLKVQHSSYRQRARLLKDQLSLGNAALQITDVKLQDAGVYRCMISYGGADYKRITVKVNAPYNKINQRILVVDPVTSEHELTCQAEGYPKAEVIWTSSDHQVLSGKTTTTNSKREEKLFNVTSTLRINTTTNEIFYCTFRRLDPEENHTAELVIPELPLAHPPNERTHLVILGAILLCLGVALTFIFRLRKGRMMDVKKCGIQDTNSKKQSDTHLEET

EC50 (read off the curve) [1]: 1 nM
EC50 (read off the curve) [2]: 0.8 nM
EC50 (read off the curve) [3]: 2 nM
EC50 (read off the curve) [4]: 2 nM
EC50 [5]: 0.682 nM
Substance: IBI322 analog (anti-PDL1/CD47 antibody of US 20220227870 A1, synthesized in-house) (bispecific antibody)

EC50 [6]: 50 nM
EC50 [7]: 6.73 nM
EC50 [8]: 0.00976 nM
Substance: IgG isotype antibody (negative control)

EC50 [9]: 8.29 nM
Substance: PF-07257876 analog (anti-PDL1/CD47 antibody of US 20210179716 A1, synthesized in-house) (bispecific antibody)

EC50; whole cell PDL1/PD1 blocking assay, NFAT luciferase reporter (RLU) [10]: 0.0532 nM
Substance: Reference Ab 1 (analog of MPDL3280A, synthesized in-house from WO2016007235A1) (antibody)
